Results as given in patent publication US20220041746A1 (Sanofi, published 2022).
Blank lines part the entries; values can stand above or below the binder they belong to.

Columns and labels:
cCD38-his (SEQ ID NO: 4) [1] = target: T1, cCD38-his (SEQ ID NO: 4) (cynomolgus monkey, UniProt Q5VAN0 46-301); experiment: ELISA (column ELISA EC50 nM, cyno)
T1 construct: His-tagged soluble protein; also called cyno CD38-histag; cynoCD38::Histag

[2] = target: T2, cynomolgus monkey CD38 expressed on the cell surface (cynomolgus monkey, UniProt Q5VAN0 1-301); experiment: flow cytometry (column FACS EC50 nM, cyno)
T2 construct: whole, on cells; also called cCD38-expressing cells
Experimental: (§1) The recombinant cell line was described by J. Deckket et al. 2014 Clin Cancer Res 20:4574-4583. […] Antibody binding was evaluated after centrifugation and resuspension of cells by adding 200 μL/well PBS 1% BSA and read using Guava® easvCyte™ 8HT Flow Cytometry System. Apparent KD and EC50 values were estimated using BIOST@T-BINDING and BIOST@T-SPEED software, respectively.

hCD38-his (SEQ ID NO: 2) [3] = target: T3, hCD38-his (SEQ ID NO: 2) (human, UniProt P28907 45-300); experiment: SPR, mAb captured via anti-human Fc, soluble CD38-his injected
T3 construct: His-tagged soluble protein derived from isoform A; also called human CD38-histag; hCD38::Histag
Experimental: (§2) The binding properties of the anti-huCD38 mabs were evaluated using a BIAcore 2000 (BIAcore Inc., Uppsala, Ni). […] The surface was regenerated between injections using 30 μL of 50 mM NaOH-1 M NaCl. Individual sensorgrams wore analyzed using BIAsimulation software.

cCD38-his (SEQ ID NO: 4) [4] = target: T1, cCD38-his (SEQ ID NO: 4); experiment: as above
Experimental: as §2

hCD38-his (SEQ ID NO: 2) [5] = target: T3, hCD38-his (SEQ ID NO: 2); experiment: ELISA (column ELISA EC50 nM, hu)
[6] = target: T4, human CD38 expressed on the cell surface (human, UniProt P28907 1-300); experiment: flow cytometry (column FACS EC50 nM, hu)
T4 construct: whole, on cells; also called hCD38-expressing cells; huCD38
Experimental: as §1

[7] = target: T2, cynomolgus monkey CD38 expressed on the …; experiment: flow cytometry on preB::300.19 cells, apparent KD
Experimental: as §1

[8] = target: T4, human CD38 expressed on the cell surface; experiment: flow cytometry on preB::300.19 cells, apparent KD
Experimental: as §1

[9] = target: human CD38 (Cambridge Biologics LLC Cat #03-01-0369) (human, UniProt P28907 43-300); experiment: ELISA on coated hCD38-His
Experimental: The binding properties of the purified antibodies were analyzed either using ELISA or SPR methods. For ELISA, corresponding antigens for each binding site in the trispecific binding protein were used to coat a 96-well Immuno Plate (Nunc 439454, Thermo Fisher Scientific) overnight at 4° C. using 2 μg/ml each antigen m PBS(pH7.4). The coated plate was blocked using 5% skim milk 12% BSA in PBS for one hour at RT, followed by washing with PBS+[…] three times (Aqua Max 400, Molecular Devices). Serial dilution of antibodies (trispecific and control Abs) were prepared and added onto the ELISA plates (100 μl/well in duplicate), incubated at RT for one hour, followed by washing 5 times with PBS+0.25% Tween 20.
The reaction was terminated by adding 50 μl 1M H₂SO₄, and OD₄₅₀ was measured using SpectraMax M5 (Molecular Devices) and analyzed using SoltMax Pro6.3 software (Molecular Devices). The final data was transferred to GraphPad Prism software (GraphPad Software, CA. USA), and plotted as shown. EC50 was calculated using the same software.

[10] = target: human CD28 (SPR of Example 4) (human, UniProt P10747 19-152, limits assumed); experiment: SPR, mono-, bi- and trispecific formats (FIG. 5)

B2: mAb2xCD28supxCD3mid IgG4 FALA (other)
heavy 1: QVQLVQSGAEVVKPGASVKVSCKASGYTFTSYYIHWVRQAPGQGLEWIGSIYPGNVNTNYAQKFQGRATLTVDTSISTAYMELSRLRSDDTAVYYCTRSHYGLDWNFDVWGKGTTVTVSSSQVQLVESGGGVVQPGRSLRLSCAASGFTFTKAWMHWVRQAPGKQLEWVAQIKDKSNSYATYYADSVKGRFTISRDDSKNTLYLQMNSLRAEDTAVYYCRGVYYALSPFDYWGQGTLVTVSSRTASTKGPSVFPLAPCSRSTSESTAALGCLVKDYFPEPVTVSWNSGALTSGVHTFPAVLQSSGLYSLSSVVTVPSSSLGTKTYTCNVDHKPSNTKVDKRVESKYGPPCPPCPAPEAAGGPSVFLFPPKPKDTLMISRTPEVTCVVVDVSQEDPEVQFNWYVDGVEVHNAKTKPREEQFNSTYRVVSVLTVLHQDWLNGKEYKCKVSNKGLPSSIEKTISKAKGQPREPQVCTLPPSQEEMTKNQVSLSCAVKGFYPSDIAVEWESNGQPENNYKTTPPVLDSDGSFFLVSKLTVDKSRWQEGNVFSCSVMHEALHNHYTQKSLSLSLG
light 1: DIVMTQTPLSLSVTPGQPASISCKSSQSLVHNNANTYLSWYLQKPGQSPQSLIYKVSNRFSGVPDRFSGSGSGTDFTLKISRVEAEDVGVYYCGQGTQYPFTFGSGTKVEIKGQPKAAPDIQMTQSPSSLSASVGDRVTITCQASQNIYVWLNWYQQKPGKAPKLLIYKASNLHTGVPSRFSGSGSGTDFTLTISSLQPEDIATYYCQQGQTYPYTFGQGTKLEIKTKGPSRTVAAPSVFIFPPSDEQLKSGTASVVCLLNNFYPREAKVQWKVDNALQSGNSQESVTEQDSKDSTYSLSSTLTLSKADYEKHKVYACEVTHQGLSSPVTKSFNRGEC
heavy 2: QVQLVQSGAEVVKPGASVKVSCKASGYTFTSYAMHWVKEAPGQRLEWIGYIYPGQGGTNYNQKFQGRATLTADTSASTAYMELSSLRSEDTAVYFCARTGGLRRAYFTYWGQGTLVTVSSASTKGPSVFPLAPCSRSTSESTAALGCLVKDYFPEPVTVSWNSGALTSGVHTFPAVLQSSGLYSLSSVVTVPSSSLGTKTYTCNVDHKPSNTKVDKRVESKYGPPCPPCPAPEAAGGPSVFLFPPKPKDTLMISRTPEVTCVVVDVSQEDPEVQFNWYVDGVEVHNAKTKPREEQFNSTYRVVSVLTVLHQDWLNGKEYKCKVSNKGLPSSIEKTISKAKGQPREPQVYTLPPCQEEMTKNQVSLWCLVKGFYPSDIAVEWESNGQPENNYKTTPPVLDSDGSFFLYSKLTVDKSRWQEGNVFSCSVMHEALHNHYTQKSLSLSLG
light 2: DIVLTQSPATLSLSPGERATISCRASQSVSSYGQGFMHWYQQKPGQPPRLLIYGASSRATGIPARFSGSGSGTDFTLTISPLEPEDFAVYYCQQNKEDPWTFGGGTKLEIKRTVAAPSVFIFPPSDEQLKSGTASVVCLLNNFYPREAKVQWKVDNALQSGNSQESVTEQDSKDSTYSLSSTLTLSKADYEKHKVYACEVTHQGLSSPVTKSFNRGEC
notes: also called CD38VH1×CD28sup×CD3mid IgG4 FALA
binding result [9]: binds

B3: mAb2xCD28supxCD3mid IgG1 NNSA (other)
heavy 1: QVQLVQSGAEVVKPGASVKVSCKASGYTFTSYYIHWVRQAPGQGLEWIGSIYPGNVNTNYAQKFQGRATLTVDTSISTAYMELSRLRSDDTAVYYCTRSHYGLDWNFDVWGKGTTVTVSSSQVQLVESGGGVVQPGRSLRLSCAASGFTFTKAWMHWVRQAPGKQLEWVAQIKDKSNSYATYYADSVKGRFTISRDDSKNTLYLQMNSLRAEDTAVYYCRGVYYALSPFDYWGQGTLVTVSSRTASTKGPSVFPLAPSSKSTSGGTAALGCLVKDYFPEPVTVSWNSGALTSGVHTFPAVLQSSGLYSLSSVVTVPSSSLGTQTYICNVNHKPSNTKVDKKVEPKSCDKTHTCPPCPAPELLGGPSVFLFPPKPKDTLMISRTPEVTCVVVDVSHEDPEVKFNWYVDGVEVHNAKTKPREEQYNNASRVVSVLTVLHQDWLNGKEYKCKVSNKALPAPIEKTISKAKGQPREPQVCTLPPSRDELTKNQVSLSCAVKGFYPSDIAVEWESNGQPENNYKTTPPVLDSDGSFFLVSKLTVDKSRWQQGNVFSCSVMHEALHNHYTQKSLSLSPG
light 1: B2 light 1
heavy 2: QVQLVQSGAEVVKPGASVKVSCKASGYTFTSYAMHWVKEAPGQRLEWIGYIYPGQGGTNYNQKFQGRATLTADTSASTAYMELSSLRSEDTAVYFCARTGGLRRAYFTYWGQGTLVTVSSASTKGPSVFPLAPSSKSTSGGTAALGCLVKDYFPEPVTVSWNSGALTSGVHTFPAVLQSSGLYSLSSVVTVPSSSLGTQTYICNVNHKPSNTKVDKKVEPKSCDKTHTCPPCPAPELLGGPSVFLFPPKPKDTLMISRTPEVTCVVVDVSHEDPEVKFNWYVDGVEVHNAKTKPREEQYNNASRVVSVLTVLHQDWLNGKEYKCKVSNKALPAPIEKTISKAKGQPREPQVYTLPPCRDELTKNQVSLWCLVKGFYPSDIAVEWESNGQPENNYKTTPPVLDSDGSFFLYSKLTVDKSRWQQGNVFSCSVMHEALHNHYTQKSLSLSPG
light 2: B2 light 2
notes: also called CD38VH1×CD28sup×CD3mid IgG1 NNAS
binding result [9]: binds

B5: anti-CD28sup antigen binding domain (antibody, V domains shown)
VH: QVQLVQSGAEVVKPGASVKVSCKASGYTFTSYYIHWVRQAPGQGLEWIGSIYPGNVNTNYAQKFQGRATLTVDTSISTAYMELSRLRSDDTAVYYCTRSHYGLDWNFDVWGKGTTVTVSS
VL: DIQMTQSPSSLSASVGDRVTITCQASQNIYVWLNWYQQKPGKAPKLLIYKASNLHTGVPSRFSGSGSGTDFTLTISSLQPEDIATYYCQQGQTYPYTFGQGTKLEIK
notes: also called super agonist, "sup"
binding result [10]: binds

Results, then the binder that gave them:

EC50 (cCD38-his (SEQ ID NO: 4) [1]): 0.17 nM | EC50 [2]: 1.15 nM | Kd (hCD38-his (SEQ ID NO: 2) [3]): 0.822 nM | koff (hCD38-his (SEQ ID NO: 2) [3]): 0.000529 s⁻¹ | Kd (cCD38-his (SEQ ID NO: 4) [4]): 1.14 nM | koff (cCD38-his (SEQ ID NO: 4) [4]): 0.000201 s⁻¹ | EC50 (hCD38-his (SEQ ID NO: 2) [5]): 0.16 nM | EC50 [6]: 0.55 nM | Kd [7]: 1.15 nM | Kd [8]: 0.33 nM
B1: mAb4 (antibody, human IgG1, kappa, V domains shown)
VH: QVQLVQSGAEVVKSGASVKVSCKASGYTFTSFNMHWVKEAPGQGLEWIGYIYPGNGGTNYNQKFQGRATLTADTSASTAYMEISSLRSEDTAVYFCARTGGLRRAYFTYWGQGTLVTVSS
VL: DIVLTQSPATLSLSPGERATISCRASESVDSYGNGFMHWYQQKPGQPPRLLIYLASSRATGIPARFSGSGSGTDFTLTISPLEPEDFAVYYCQQNKEDPWTFGGGTKLEIKR
notes: also called antiCD38_C2-CD38-1_VH5-VL3

binding result [10]: binds
B4: anti-CD28cvn antigen binding domain (antibody, V domains shown)
VH: QVQLQESGPGLVKPSQTLSLTCTVSGFSLSDYGVHWVRQPPGKGLEWLGVIWAGGGTNYNPSLKSRKTISKDTSKNQVSLKLSSVTAADTAVYYCARDKGYSYYYSMDYWGQGTTVTVSS
VL: DIVLTQSPASLAVSPGQRATITCRASESVEYYVTSLMQWYQQKPGQPPKLLIFAASNVESGVPARFSGSGSGTDFTLTINPVEANDVANYYCQQSRKVPYTFGQGTKLEIK
notes: also called anti-CD28evn; conventional agonist, "cvn"
